Measured values from patent US20080103086A1, “METHODS FOR THE TREATMENT OF DISEASES ASSOCIATED WITH THE SECRETION OF HMGB1” (priority 2006, published 2008).
One block for each molecule: values may come before it.

How the values were obtained:
HMGB1 secretion = assay: Inhibition of HMGB1 secretion by Protein Kinase C inhibitor in LPS-treated RAW 264.7 cells (Western blot of supernatants); assay type: cell-based, Murine; details: 200 ng/mL LPS combined with inhibitor, 16 h, Go 6983 0.1 to 10 μM
Protocol: RAW 264.7 cells were treated with 200 ng/mL of LPS alone or combined with Gö 6983 (PKC inhibitor) at the indicated concentrations (μM) for 16 h. SB203580 (p38 inhibitor), PD098059 (ERK1/2 inhibitor), Bay 11-7082 (NF-κB inhibitor) were used for comparison. The supernatants were harvested and separated with 12% SDS-PAGE and Western blot was performed to observe the level of HMGB1.
To analyze the secretion of HMGB1 in the supernatants, culture media were replaced with serum-free OPTI-MEM (Gibco BRL) medium and concentrated with Amicon Centricon filtration (Millipore) after removing cell debris, and Western blot analysis was performed. The cytoplasmic and nuclear fractions from 5×10^6 cells were separated using a digitonin-based method (Bird, C. H. et al, Mol Cell Biol 21:5396-5407 (2001)) to observe the levels of HMGB1 in each fraction. The cells were lysed using 1% Nonidet P-40 buffer containing a protease inhibitor cocktail (Sigma), and the protein concentrations were measured by Bradford assay (Biorad) for the analysis of whole cell lysates (WCLs). The protein samples underwent 12% SDS-PAGE and were transferred to a nitrocellulose membrane. Western blot analysis was performed using rabbit anti-HMGB1 (BD Pharmingen) and HRP-labeled goat anti-rabbit Ig as primary and secondary antibodies, respectively.
To observe the inhibition of HMGB1 secretion by PKC inhibitor, RAW 264.7 cells were treated with 200 ng/mL of LPS alone or combined with Gö 6983 (Calbiochem), a conventional PKC (α, β, and γ) inhibitor including PKCδ and PKCζ, at the indicated concentrations for 16 h. Other inhibitors of SB203580 (p38 inhibitor, Calbiochem), PD098059 (ERK1/2 inhibitor, Calbiochem), Bay 11-7082 (NF-κB inhibitor, Calbiochem) were included. The supernatants were harvested and separated with 12% SDS-PAGE and Western blot was performed to observe the level of HMGB1.

[1] = molecular target: six His-tagged wild type HMGB1 (UniProt P09429)
[2] = molecular target: six His-tagged HMGB1 NLS1/2A, not tagged with GFP (UniProt P09429)
[3] = molecular target: T1, GST-KAP-α1 fusion protein (human, UniProt P52294 1-538); assay: GST pull-down with GST-KAP-α1 on glutathione-Sepharose beads, anti-His blot
T1 construct: Produced in E. coli BL21, immobilized on glutathione-Sepharose 4B beads; the primers start at the ATG of the coding region; not shown: glutathione S-transferase (GST) tag encoded by vector pGEX-4T-1 (Pharmacia)
Protocol: Direct binding of recombinant HMGB1 protein to KAP-α1 was tested to exclude the possibility that other HMGB1-interacting proteins present in cell lysates could have a role in binding. Purified six His-tagged wild type HMGB1 protein and boxes A (aa 1-87) and B (aa 88-162) proteins, which were identified at expected size by Coomassie blue staining (FIG. 4B, left), were purified from E. coli BL21. Same molar amounts of all wild and truncated forms of HMGB1 were added to GST-KAP-α1, and GST pull-down assay was performed.

Flag-tagged KAP-α1 [4] = molecular target: T2, Flag-tagged KAP-α1 (human, UniProt P52294 1-538); assay: co-immunoprecipitation from co-transfected RAW 264.7 cells, Western blot (summed up in Example 7)
T2 construct: Expressed in co-transfected RAW 264.7 cells; used in co-immunoprecipitation; also called FLAG-KAP-α1; not shown: Flag tag of vector pCMV-Tag2 (Stratagene)
Protocol: (§1) To observe the binding of KAP protein to each mutant HMGB1 in the cells, Flag-tagged KAP-α1 and each mutant HMGB1-GFP plasmid were co-transfected into RAW 264.7 cells. Cell homogenates of transfected RAW 264.7 cells were harvested and incubated with mouse anti-Flag (M2, Sigma) and mouse anti-GFP (Santa Cruz) at 4° C. overnight. Immune complexes were collected and the membranes were blotted with anti-Flag and anti-GFP, respectively. The reciprocal experiment was also performed. GST was used as a negative control. And to test the direct binding of HMGB1 to KAP-α1, GST pull-down assay was performed as described above.
(§2) To observe the effect of phosphorylation in both NLS regions of HMGB1 on the binding to KAP-α1 and on the subcellular localization of HMGB1 in the transfected cells, a number of site-directed mutations in six serines of NLS1 and NLS2 were generated using a HMGB1-GFP fusion construct plasmid (FIG. 5A). Serines 35, 39, 42, 46, 53 within or close to NLS1 and serine 181 at NLS2 were alternatively or totally mutated into alanine or glutamic acid. Substitution with alanine and glutamic acid simulated unphosphorylated and a phosphorylated states, respectively. RAW 264.7 cells were co-transfected with a Flag-tagged KAP-α1 plasmid and each mutant HMGB1-GFP plasmid, and immunoprecipitates using anti-GFP (FIG. 5B) or anti-Flag (FIG. 5C) were analyzed with anti-Flag for KAP-α1 or anti-GFP for HMGB1.

Flag-tagged KAP-α1 [5] = molecular target: T2, Flag-tagged KAP-α1; assay: co-immunoprecipitation from co-transfected RAW 264.7 cells (anti-GFP and anti-Flag), Western blot
Protocol: as §1, §2

binding result [3]: no binding
B1: six His-tagged HMGB1 box A (aa 1-87) (other, human, UniProt P09429 1-87, looked up)
chain: MGKGDPKKPRGKMSSYAFFVQTCREEHKKKHPDASVNFSEFSKKCSERWKTMSAKEKGKFEDMAKADKARYEREMKTYIPPKGETKK
notes: range 1-87; Includes NLS1 (aa 28-44); Purified from E. coli BL21; also called boxes A (aa 1-87); not shown: 6×His tag and vector-encoded residues of pRSETB (Invitrogen)

binding result [3]: no binding
B2: six His-tagged HMGB1 box B (aa 88-162) (other, human, UniProt P09429 88-162, looked up, not shown: small tags and cut ends)
chain: KFKDPNAPKRPPSAFFLFCSEYRPKIKGEHPGLSIGDVAKKLGEMWNNTAADDKQPYEKKAAKLKEKYEKDIAAY
notes: range 88-162

interaction relative to wild-type (Flag-tagged KAP-α1 [4]): ≥ 50 % of wild-type
B4: HMGB1 NLS1A (HMGB1-GFP mutant) (other, human, UniProt P09429 1-215, looked up)
chain: MGKGDPKKPRGKMSSYAFFVQTCREEHKKKHPDAAVNFAEFAKKCAERWKTMAAKEKGKFEDMAKADKARYEREMKTYIPPKGETKKKFKDPNAPKRPPSAFFLFCSEYRPKIKGEHPGLSIGDVAKKLGEMWNNTAADDKQPYEKKAAKLKEKYEKDIAAYRAKGKPDAAKKGVVKAEKSKKKKEEEEDEEDEEDEEEEEDEEDEDEEEDDDDE
notes: not shown: EGFP of pEGFP-N1 and linker

interaction relative to wild-type (Flag-tagged KAP-α1 [5]): ~50 % of wild-type | interaction relative to wild-type (Flag-tagged KAP-α1 [4]): ≥ 50 % of wild-type
B5: HMGB1 NLS2E (HMGB1-GFP mutant) (other, human, UniProt P09429 1-215, looked up)
chain: MGKGDPKKPRGKMSSYAFFVQTCREEHKKKHPDASVNFSEFSKKCSERWKTMSAKEKGKFEDMAKADKARYEREMKTYIPPKGETKKKFKDPNAPKRPPSAFFLFCSEYRPKIKGEHPGLSIGDVAKKLGEMWNNTAADDKQPYEKKAAKLKEKYEKDIAAYRAKGKPDAAKKGVVKAEKEKKKKEEEEDEEDEEDEEEEEDEEDEDEEEDDDDE
notes: as for B4

interaction relative to wild-type (Flag-tagged KAP-α1 [4]): ≥ 50 % of wild-type
B6: HMGB1 NLS2A (HMGB1-GFP mutant) (other, human, UniProt P09429 1-215, looked up)
chain: MGKGDPKKPRGKMSSYAFFVQTCREEHKKKHPDASVNFSEFSKKCSERWKTMSAKEKGKFEDMAKADKARYEREMKTYIPPKGETKKKFKDPNAPKRPPSAFFLFCSEYRPKIKGEHPGLSIGDVAKKLGEMWNNTAADDKQPYEKKAAKLKEKYEKDIAAYRAKGKPDAAKKGVVKAEKAKKKKEEEEDEEDEEDEEEEEDEEDEDEEEDDDDE
notes: as for B4

binding result (Flag-tagged KAP-α1 [5]): no binding
B7: HMGB1 NLS1/2E (HMGB1-GFP mutant) (other, human, UniProt P09429 1-215, looked up)
chain: MGKGDPKKPRGKMSSYAFFVQTCREEHKKKHPDAEVNFEEFEKKCEERWKTMEAKEKGKFEDMAKADKARYEREMKTYIPPKGETKKKFKDPNAPKRPPSAFFLFCSEYRPKIKGEHPGLSIGDVAKKLGEMWNNTAADDKQPYEKKAAKLKEKYEKDIAAYRAKGKPDAAKKGVVKAEKEKKKKEEEEDEEDEEDEEEEEDEEDEDEEEDDDDE
notes: as for B4

interaction relative to wild-type (Flag-tagged KAP-α1 [5]): ~50 % of wild-type | interaction relative to wild-type (Flag-tagged KAP-α1 [4]): ≥ 50 % of wild-type
B8: HMGB1 NLS1E (HMGB1-GFP mutant) (other, human, UniProt P09429 1-215, looked up)
chain: MGKGDPKKPRGKMSSYAFFVQTCREEHKKKHPDAEVNFEEFEKKCEERWKTMEAKEKGKFEDMAKADKARYEREMKTYIPPKGETKKKFKDPNAPKRPPSAFFLFCSEYRPKIKGEHPGLSIGDVAKKLGEMWNNTAADDKQPYEKKAAKLKEKYEKDIAAYRAKGKPDAAKKGVVKAEKSKKKKEEEEDEEDEEDEEEEEDEEDEDEEEDDDDE
notes: as for B4

The next lines start with the molecule.

Molecule: Cc1ccc(S(=O)(=O)/C=C/C#N)cc1 [Bay 11-7082]
levels of HMGB1 in the culture supernatants (HMGB1 secretion) (HMGB1 secretion): decreased in a concentration-dependent manner

Molecule: COc1ccc2c(c1)c(C1=C(c3c[nH]c4ccccc34)C(=O)NC1=O)cn2CCCN(C)C [Go 6983, 2-[1-(3-dimethylaminopropyl)-5-methoxyindol-3-yl]-3-(1H-indol-3-yl) Maleimide]
levels of HMGB1 in the culture supernatants (HMGB1 secretion) (HMGB1 secretion): decreased to undetectable level | levels of HMGB1 in the culture supernatants (HMGB1 secretion) (HMGB1 secretion; listed as Go6983): the secretion of HMGB1 was inhibited

Molecule: COc1cccc(-c2cc(=O)c3ccccc3o2)c1N [PD098059]
levels of HMGB1 in the culture supernatants (HMGB1 secretion) (HMGB1 secretion): no change of HMGB1 secretion

Molecule: C[S+]([O-])c1ccc(-c2nc(-c3ccncc3)c(-c3ccc(F)cc3)[nH]2)cc1 (stereo not shown) [SB203580]
levels of HMGB1 in the culture supernatants (HMGB1 secretion) (HMGB1 secretion): no change of HMGB1 secretion

Molecule: Cdc2 kinase (New England BioLabs)
in vitro protein kinase assay ([γ-32P]ATP, autoradiography) [1]: CK II and cdc2 showed no phosphorylation of HMGB1

Molecule: casein kinase II (CK II) (New England BioLabs)
in vitro protein kinase assay ([γ-32P]ATP, autoradiography) [1]: CK II and cdc2 showed no phosphorylation of HMGB1

Molecule: protein kinase C (PKC) protein (Upstate)
in vitro protein kinase assay ([γ-32P]ATP, autoradiography) [1]: PKC phosphorylated WT HMGB1 | in vitro protein kinase assay ([γ-32P]ATP, autoradiography) [2]: showed little or no phosphorylation compared to the WT HMGB1

B3: HMGB1 NLS1/2A (HMGB1-GFP mutant) (other, human, UniProt P09429 1-215, looked up)
chain: MGKGDPKKPRGKMSSYAFFVQTCREEHKKKHPDAAVNFAEFAKKCAERWKTMAAKEKGKFEDMAKADKARYEREMKTYIPPKGETKKKFKDPNAPKRPPSAFFLFCSEYRPKIKGEHPGLSIGDVAKKLGEMWNNTAADDKQPYEKKAAKLKEKYEKDIAAYRAKGKPDAAKKGVVKAEKAKKKKEEEEDEEDEEDEEEEEDEEDEDEEEDDDDE
notes: as for B4
interaction relative to wild-type (Flag-tagged KAP-α1 [4]): ≥ 50 % of wild-type
